± gives the standard deviation of the averaged measurements.
Experiments:
[1] = tested on: Saccharomyces cerevisiae; experiment: protein stability index of tFT-peptide fusion (C-terminal peptide) (PSI (0-1 scale)); higher = more stable (slower turnover); conditions: genetic background: wild type; temperature: 30 C
[2] = tested on: Saccharomyces cerevisiae; experiment: as above
Procedure: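 MPS profiling in S. cerevisiae of the tFT-X12 degron library: putative degron peptides plus stable controls, 12 aa, fused to the C-terminus of a sfGFP-mCherry timer. Cells are FACS-sorted into 8 mCherry/sfGFP bins and deep-sequenced. PSI runs from 0 (unstable) to 1 (stable). Backgrounds are wild type, das1Δ and doa10Δ at 30 °C, and wild type, das1Δ, cdc34-1 and cdc53-1 at 37 °C; 2-3 technical replicates each.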

[3] = genetic background: cdc34-1, temperature: 37 C
[4] = genetic background: cdc53-1, temperature: 37 C
[5] = genetic background: das1 deletion, temperature: 30 C
[6] = genetic background: das1 deletion, temperature: 37 C
[7] = genetic background: doa10 deletion, temperature: 30 C
[8] = genetic background: wild type, temperature: 30 C
[9] = genetic background: wild type, temperature: 37 C
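Further: PSI is a weighted mean of sequencing reads over stability bins, variants kept only with over 10 reads, mCherry proximal and sfGFP distal, peptide attached via GGGS linker.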

IFVLLSYYPLFV
protein stability index [1]: 0.338 ± 0.018
protein stability index [2, 3]: 0.263 ± 0.016
protein stability index [2, 4]: 0.279 ± 0.012
protein stability index [2, 5]: 0.265 ± 0.019
protein stability index [2, 6]: 0.422 ± 0.012
protein stability index [2, 7]: 0.288 ± 0.016
protein stability index [2, 8]: 0.243 ± 0.027
protein stability index [2, 9]: 0.391 ± 0.0059

IGSARIKLLCYH
protein stability index [1]: 0.213 ± 0.0061
protein stability index [2, 3]: 0.6024 ± 0.0044
protein stability index [2, 4]: 0.705 ± 0.014
protein stability index [2, 5]: 0.592 ± 0.017
protein stability index [2, 6]: 0.7434 ± 0.0024
protein stability index [2, 7]: 0.124 ± 0.017
protein stability index [2, 8]: 0.165 ± 0.027
protein stability index [2, 9]: 0.331 ± 0.031

ILHRRCGLLLQI
protein stability index [1]: 0.343 ± 0.016
protein stability index [2, 3]: 0.47 ± 0.04
protein stability index [2, 4]: 0.506 ± 0.0066
protein stability index [2, 5]: 0.447 ± 0.015
protein stability index [2, 6]: 0.538 ± 0.017
protein stability index [2, 7]: 0.273 ± 0.0094
protein stability index [2, 8]: 0.278 ± 0.025
protein stability index [2, 9]: 0.4161 ± 0.0032

ISVSVVFFVLRF
protein stability index [1]: 0.3965 ± 0.0021
protein stability index [2, 3]: 0.27578 ± 0.00014
protein stability index [2, 4]: 0.369 ± 0.031
protein stability index [2, 5]: 0.265 ± 0.041
protein stability index [2, 6]: 0.429 ± 0.015
protein stability index [2, 7]: 0.294 ± 0.017
protein stability index [2, 8]: 0.279 ± 0.019
protein stability index [2, 9]: 0.411 ± 0.011

IYPPVSVTNLLV
protein stability index [1]: 0.357 ± 0.1
protein stability index [2, 3]: 0.6646 ± 0.0022
protein stability index [2, 4]: 0.723 ± 0.0079
protein stability index [2, 5]: 0.646 ± 0.036
protein stability index [2, 6]: 0.723 ± 0.014
protein stability index [2, 7]: 0.227 ± 0.029
protein stability index [2, 8]: 0.255 ± 0.032
protein stability index [2, 9]: 0.461 ± 0.0062

KAEKNSKKTSTE
protein stability index [1]: 0.698 ± 0.044
protein stability index [2, 3]: 0.685 ± 0.073
protein stability index [2, 4]: 0.721 ± 0.013
protein stability index [2, 5]: 0.658 ± 0.064
protein stability index [2, 6]: 0.68229 ± 0.0003
protein stability index [2, 7]: 0.633 ± 0.031
protein stability index [2, 8]: 0.649 ± 0.033
protein stability index [2, 9]: 0.702 ± 0.021

KALSSSYFGTRL
protein stability index [1]: 0.735 ± 0.062
protein stability index [2, 3]: 0.69 ± 0.025
protein stability index [2, 4]: 0.745 ± 0.015
protein stability index [2, 5]: 0.648 ± 0.014
protein stability index [2, 6]: 0.743 ± 0.0082
protein stability index [2, 7]: 0.649 ± 0.019
protein stability index [2, 8]: 0.6755 ± 0.0058
protein stability index [2, 9]: 0.7128 ± 0.007

KCEKGLYCCIAF
protein stability index [1]: 0.504 ± 0.073
protein stability index [2, 3]: 0.608 ± 0.055
protein stability index [2, 4]: 0.68 ± 0.036
protein stability index [2, 5]: 0.518 ± 0.031
protein stability index [2, 6]: 0.664 ± 0.0099
protein stability index [2, 7]: 0.516 ± 0.025
protein stability index [2, 8]: 0.534 ± 0.027
protein stability index [2, 9]: 0.626 ± 0.018

KEKGVTKIRISS
protein stability index [1]: 0.295 ± 0.0055
protein stability index [2, 3]: 0.6166 ± 0.0019
protein stability index [2, 4]: 0.6861 ± 0.0021
protein stability index [2, 5]: 0.632 ± 0.024
protein stability index [2, 6]: 0.7071 ± 0.0024
protein stability index [2, 7]: 0.1724 ± 0.00028
protein stability index [2, 8]: 0.195 ± 0.037
protein stability index [2, 9]: 0.377 ± 0.024

KEKKKTKHNKIG
protein stability index [1]: 0.216 ± 0.038
protein stability index [2, 3]: 0.587 ± 0.059
protein stability index [2, 4]: 0.7521 ± 0.0072
protein stability index [2, 5]: 0.631 ± 0.014
protein stability index [2, 6]: 0.742 ± 0.011
protein stability index [2, 7]: 0.184 ± 0.029
protein stability index [2, 8]: 0.155 ± 0.032
protein stability index [2, 9]: 0.314 ± 0.02

KIVNNTKKNKCH
protein stability index [1]: 0.226 ± 0.025
protein stability index [2, 3]: 0.638 ± 0.048
protein stability index [2, 4]: 0.684 ± 0.0087
protein stability index [2, 5]: 0.652 ± 0.039
protein stability index [2, 6]: 0.738 ± 0.012
protein stability index [2, 7]: 0.153 ± 0.021
protein stability index [2, 8]: 0.195 ± 0.046
protein stability index [2, 9]: 0.26 ± 0.058

KLALVYLLIRGL
protein stability index [1]: 0.125 ± 0.06
protein stability index [2, 3]: 0.423 ± 0.015
protein stability index [2, 4]: 0.496 ± 0.028
protein stability index [2, 5]: 0.366 ± 0.031
protein stability index [2, 6]: 0.5681 ± 0.00085
protein stability index [2, 7]: 0.0641 ± 0.01
protein stability index [2, 8]: 0.0862 ± 0.02
protein stability index [2, 9]: 0.0975 ± 0.0076

KLLGVLFVLFPG
protein stability index [1]: 0.443 ± 0.017
protein stability index [2, 3]: 0.486 ± 0.012
protein stability index [2, 4]: 0.599 ± 0.034
protein stability index [2, 5]: 0.367 ± 0.031
protein stability index [2, 6]: 0.569 ± 0.01
protein stability index [2, 7]: 0.324 ± 0.0068
protein stability index [2, 8]: 0.336 ± 0.026
protein stability index [2, 9]: 0.527 ± 0.018

KLRIVYAKVVCS
protein stability index [1]: 0.348 ± 0.055
protein stability index [2, 3]: 0.547 ± 0.044
protein stability index [2, 4]: 0.592 ± 0.025
protein stability index [2, 5]: 0.511 ± 0.029
protein stability index [2, 6]: 0.613 ± 0.0069
protein stability index [2, 7]: 0.247 ± 0.019
protein stability index [2, 8]: 0.274 ± 0.015
protein stability index [2, 9]: 0.407 ± 0.067

KSEKTYTYQVIQ
protein stability index [1]: 0.453 ± 0.0059
protein stability index [2, 3]: 0.682 ± 0.022
protein stability index [2, 4]: 0.749 ± 0.027
protein stability index [2, 5]: 0.622 ± 0.023
protein stability index [2, 6]: 0.7159 ± 0.0055
protein stability index [2, 7]: 0.329 ± 0.031
protein stability index [2, 8]: 0.37 ± 0.027
protein stability index [2, 9]: 0.5757 ± 0.005

KVALWRRGVLAA
protein stability index [1]: 0.231 ± 0.007
protein stability index [2, 3]: 0.363 ± 0.028
protein stability index [2, 4]: 0.387 ± 0.013
protein stability index [2, 5]: 0.257 ± 0.037
protein stability index [2, 6]: 0.476 ± 0.011
protein stability index [2, 7]: 0.142 ± 0.0064
protein stability index [2, 8]: 0.161 ± 0.02
protein stability index [2, 9]: 0.286 ± 0.0099

LCGYVGVVVCLV
protein stability index [1]: 0.307 ± 0.019
protein stability index [2, 3]: 0.282 ± 0.012
protein stability index [2, 4]: 0.307 ± 0.027
protein stability index [2, 5]: 0.243 ± 0.029
protein stability index [2, 6]: 0.433 ± 0.0061
protein stability index [2, 7]: 0.175 ± 0.0034
protein stability index [2, 8]: 0.209 ± 0.021
protein stability index [2, 9]: 0.352 ± 0.015

LCIRHFRLLELL
protein stability index [1]: 0.276 ± 0.0069
protein stability index [2, 3]: 0.5607 ± 0.0046
protein stability index [2, 4]: 0.72 ± 0.014
protein stability index [2, 5]: 0.642 ± 0.033
protein stability index [2, 6]: 0.728 ± 0.041
protein stability index [2, 7]: 0.165 ± 0.011
protein stability index [2, 8]: 0.167 ± 0.016
protein stability index [2, 9]: 0.268 ± 0.021

LCSYSTIPLRLY
protein stability index [1]: 0.329 ± 0.035
protein stability index [2, 3]: 0.619 ± 0.034
protein stability index [2, 4]: 0.726 ± 0.013
protein stability index [2, 5]: 0.614 ± 0.019
protein stability index [2, 6]: 0.695 ± 0.022
protein stability index [2, 7]: 0.188 ± 0.0019
protein stability index [2, 8]: 0.231 ± 0.021
protein stability index [2, 9]: 0.48 ± 0.013
